Assay results published in patent publication US20220289798A1 (published 2022).

Key:
Gp120 [1] = biological target: Gp120 (HIV); experiment: direct ELISA; direct ELISA
Gp120 [2] = biological target: Gp120 (HIV); experiment: ELISA
Gp120 [3] = biological target: Gp120 (HIV); experiment: indirect ELISA; indirect ELISA

B1: NK 20K Direct (other)
chain: MKSLTHRRFGGSGGSPFSGLSSIAVRSGSYLDAIIIDGVHHGGSGGNLSPTFTFGSGEYISNMTIRSGDYIDNISFETNQGRRFGPYGGSGGSANTLSNVRVIQINGSAGDYLDSLDIYYEQY
modifications: 20,000 MW PEG coupled by NHS ester to a primary amine. The intended site is the added N-terminal Lys, pos 2, written K; the N-terminal amine is also possible. At least one PEG per dimer. The exact site and number of PEGs are not determined.
- EC50 (Gp120 [1]): 0.0173 ng/mL

B2: NK 2K (other)
chain: MKSLTHRRFGGSGGSPFSGLSSIAVRSGSYLDAIIIDGVHHGGSGGNLSPTFTFGSGEYISNMTIRSGDYIDNISFETNQGRRFGPYGGSGGSANTLSNVRVIQINGSAGDYLDSLDIYYEQY
modifications: 2,000 MW PEG coupled by NHS ester to a primary amine. The intended site is the added N-terminal Lys, pos 2, written K; the N-terminal amine is also possible. At least one PEG per dimer. The exact site and number of PEGs are not determined.
- EC50 (Gp120 [2]): 60.8 ng/mL
- EC50 (Gp120 [3]): 7.45 ng/mL

B3: NK (other)
chain: MKSLTHRRFGGSGGSPFSGLSSIAVRSGSYLDAIIIDGVHHGGSGGNLSPTFTFGSGEYISNMTIRSGDYIDNISFETNQGRRFGPYGGSGGSANTLSNVRVIQINGSAGDYLDSLDIYYEQY
- EC50 (Gp120 [2]): 15 ng/mL

B4: NK 20K (other)
chain: MKSLTHRRFGGSGGSPFSGLSSIAVRSGSYLDAIIIDGVHHGGSGGNLSPTFTFGSGEYISNMTIRSGDYIDNISFETNQGRRFGPYGGSGGSANTLSNVRVIQINGSAGDYLDSLDIYYEQY
modifications: 20,000 MW PEG coupled by NHS ester to a primary amine. The intended site is the added N-terminal Lys, pos 2, written K; the N-terminal amine is also possible. At least one PEG per dimer. The exact site and number of PEGs are not determined.
- EC50 (Gp120 [3]): 26.4 ng/mL

B5: NK 2K Direct (other)
chain: MKSLTHRRFGGSGGSPFSGLSSIAVRSGSYLDAIIIDGVHHGGSGGNLSPTFTFGSGEYISNMTIRSGDYIDNISFETNQGRRFGPYGGSGGSANTLSNVRVIQINGSAGDYLDSLDIYYEQY
modifications: 2,000 MW PEG coupled by NHS ester to a primary amine. The intended site is the added N-terminal Lys, pos 2, written K; the N-terminal amine is also possible. At least one PEG per dimer. The exact site and number of PEGs are not determined.
- EC50 (Gp120 [1]): 0.0875 ng/mL

B6: CK 20K (other)
chain: MSLTHRRFGGSGGSPFSGLSSIAVRSGSYLDAIIIDGVHHGGSGGNLSPTFTFGSGEYISNMTIRSGDYIDNISFETNQGRRFGPYGGSGGSANTLSNVRVIQINGSAGDYLDSLDIYYEQYK
modifications: 20,000 MW PEG coupled by NHS ester to a primary amine. The intended site is the added C-terminal Lys, pos 123, written K. At least one PEG per dimer. The exact site and number of PEGs are not determined.
- EC50 (Gp120 [2]): 90.5 ng/mL
- EC50 (Gp120 [3]): 14.1 ng/mL

B7: CK 20K Direct (other)
chain: MSLTHRRFGGSGGSPFSGLSSIAVRSGSYLDAIIIDGVHHGGSGGNLSPTFTFGSGEYISNMTIRSGDYIDNISFETNQGRRFGPYGGSGGSANTLSNVRVIQINGSAGDYLDSLDIYYEQYK
modifications: 20,000 MW PEG coupled by NHS ester to a primary amine. The intended site is the added C-terminal Lys, pos 123, written K. At least one PEG per dimer. The exact site and number of PEGs are not determined.
- EC50 (Gp120 [1]): 0.029 ng/mL

B8: CK (other)
chain: MSLTHRRFGGSGGSPFSGLSSIAVRSGSYLDAIIIDGVHHGGSGGNLSPTFTFGSGEYISNMTIRSGDYIDNISFETNQGRRFGPYGGSGGSANTLSNVRVIQINGSAGDYLDSLDIYYEQYK
- EC50 (Gp120 [2]): 10.5 ng/mL

B9: Q 20K (other)
chain: MSLTHRKFGGSGGSPFSGLSSIAVRSGSYLDAIIIDGVHHGGSGGNLSPTFTFGSGEYISNMTIRSGDYIDNISFETNQGRRFGPYGGSGGSANTLSNVKVIQINGSAGDYLDSLDIYYEQY
modifications: 20,000 MW PEG coupled by NHS ester to a primary amine. The candidate sites are Lys pos 7 and Lys pos 100, both written K. At least one PEG per dimer. The exact site and number of PEGs are not determined.
- EC50 (Gp120 [2]): 33.6 ng/mL
- EC50 (Gp120 [3]): 16.3 ng/mL

B10: M78K2K Rx Direct (other)
chain: MSLTHRRFGGSGGSPFSGLSSIAVRSGSYLDAIIIDGVHHGGSGGNLSPTFTFGSGEYISNMTIRSGDYIDNISFETNKGRRFGPYGGSGGSANTLSNVRVIQINGSAGDYLDSLDIYYEQY
modifications: chain 1 pos 79: Lys carrying 2,000 MW PEG by NHS-ester amine coupling, written K. It is the only lysine in the chain. At least one PEG per dimer. The exact site and occupancy were not measured.
- EC50 (Gp120 [1]): 0.332 ng/mL

B11: M78K 20K (other)
chain: MSLTHRRFGGSGGSPFSGLSSIAVRSGSYLDAIIIDGVHHGGSGGNLSPTFTFGSGEYISNMTIRSGDYIDNISFETNKGRRFGPYGGSGGSANTLSNVRVIQINGSAGDYLDSLDIYYEQY
modifications: chain 1 pos 79: Lys carrying 20,000 MW PEG by NHS-ester amine coupling, written K. It is the only lysine in the chain. At least one PEG per dimer. The exact site and occupancy were not measured.
- EC50 (Gp120 [2]): 304 ng/mL
- EC50 (Gp120 [3]): 19.2 ng/mL

B12: Q (other)
chain: MSLTHRKFGGSGGSPFSGLSSIAVRSGSYLDAIIIDGVHHGGSGGNLSPTFTFGSGEYISNMTIRSGDYIDNISFETNQGRRFGPYGGSGGSANTLSNVKVIQINGSAGDYLDSLDIYYEQY
- EC50 (Gp120 [2]): 8.38 ng/mL

B13: M78K (other)
chain: MSLTHRRFGGSGGSPFSGLSSIAVRSGSYLDAIIIDGVHHGGSGGNLSPTFTFGSGEYISNMTIRSGDYIDNISFETNKGRRFGPYGGSGGSANTLSNVRVIQINGSAGDYLDSLDIYYEQY
- EC50 (Gp120 [2]): 11.1 ng/mL

B14: M78K 2K (other)
chain: MSLTHRRFGGSGGSPFSGLSSIAVRSGSYLDAIIIDGVHHGGSGGNLSPTFTFGSGEYISNMTIRSGDYIDNISFETNKGRRFGPYGGSGGSANTLSNVRVIQINGSAGDYLDSLDIYYEQY
modifications: chain 1 pos 79: Lys carrying 2,000 MW PEG by NHS-ester amine coupling, written K. It is the only lysine in the chain. At least one PEG per dimer. The exact site and occupancy were not measured.
- EC50 (Gp120 [2]): 33.8 ng/mL
- EC50 (Gp120 [3]): 10.9 ng/mL

B15: Q 20K Direct (other)
chain: MSLTHRKFGGSGGSPFSGLSSIAVRSGSYLDAIIIDGVHHGGSGGNLSPTFTFGSGEYISNMTIRSGDYIDNISFETNQGRRFGPYGGSGGSANTLSNVKVIQINGSAGDYLDSLDIYYEQY
modifications: 20,000 MW PEG coupled by NHS ester to a primary amine. The candidate sites are Lys pos 7 and Lys pos 100, both written K. At least one PEG per dimer. The exact site and number of PEGs are not determined.
- EC50 (Gp120 [1]): 0.0355 ng/mL

B16: M78K20K Rx (other)
chain: MSLTHRRFGGSGGSPFSGLSSIAVRSGSYLDAIIIDGVHHGGSGGNLSPTFTFGSGEYISNMTIRSGDYIDNISFETNKGRRFGPYGGSGGSANTLSNVRVIQINGSAGDYLDSLDIYYEQY
modifications: chain 1 pos 79: Lys carrying 20,000 MW PEG by NHS-ester amine coupling, written K. It is the only lysine in the chain. At least one PEG per dimer. The exact site and occupancy were not measured.
- EC50 (Gp120 [1]): 0.0624 ng/mL
